Assay results reported in the supplement of paper PMC9170038.

These sequences were tested on K4 kissing-loop RNA reporter (assay: apparent KD of K4 kissing-loop reporter; higher = weaker reporter binding). Conditions: Eterna round: R107; input ligand: none.
Protocol: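 RNA-MaP round R107: designed RNA switches with theophylline, tryptophan, arginine or FMN aptamers are transcribed on-chip within common flanks. They are titrated with a labelled K4 kissing-loop RNA reporter in RNA-MaP buffer (100 mM Tris pH 7.5, 80 mM KCl, 4 mM MgCl2), without ligand or with the indicated ligand. Median apparent KD per design.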
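Note: bound reporter read as fluorescence of individual clusters on recovered sequencing chips by microscopy, with normalized cluster intensities fitted with a binding model.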

| Sequence | apparent KD of K4 kissing-loop reporter |
| --- | --- |
| GCAGUGAUGUUGCGGAUGUACAGUGGCGUGCGAGGACCGGUACGGCCGCCACUCGUACAGAGCGAGCUAAUACAUCGAUAGGUGA [whbob_SS_Tryp_A_m5] | 236 nM |
| GCUAUGGUAGGAAGGAGCGCGGACGAUAUUUAUCGAGUGAUGUUCGAUUAAUUAAUUUUAACGCAGGUAGGUCGCCUACUAUAGC [Arginine B K4 28] | 105 nM |
| ACGUAUAUCAGAGGAUAUCGUAUUAAUAUUUUAUCUAUAUAGUUUUGCAGUGAUGUUGCAAUUAUUCGAGAAGGCUGAUUUACGA [JR_SSFMNB_Sub024] | 75.3 nM |
| CUUCAGAUCUGAAGGAGCGCGUUACCAGAAUGCAUCAUAGAGCAGUGAUGUUGCUCUGGAUCGCAGGUAGGUCGCAGAUCUGACG [Arg B Ex t7b] | 189 nM |
| GCCCGAAAGGGCCGAAGUGUUUGCGGCGAUCGAGGACCGGUACGGCCGCCACUCGUCGAGGCGUUCAGUGAUGUUGAAAGCAUGA | 215 nM |
| CUCGAGUGAUGUUCCUUUAUUUAUACAGAUACCAGUGAAUUUUAACACCCUUGGCAGCUGGUUGUAUCUUUGUUUUUUACACAUG [JR_Nu_ExcTheophyA_Sub025] | 205 nM |
| UGUCAUUGGUCGGCCGCCACUUCAUGUAGAGUGAUGUUCUGUAGGACGGAUCGAAAGAUCUGUCGAAGGACCGGGACCGAUGACU [FiskerMod 14 - Jieux - Same State - Tryptophan B] | 1180 nM |
| UGCCGCAAGGCGAGCGCUCCCACUCCGGAAGGAGCGCCCGUAAGGGCAGGUAGGUCGCCGGAGUGAUGUUCCGGUGGAGGGCUCG [#2 Exclusion - Arginine A Attempt #24 (Inspired by Omei)] | 537 nM |
| UGUGUUUACCUGACUCAGUGAUGUUGAGAAGGAGCGUGCGAAAGCACAGGUAGGUCGCUCAAUCCUUAAUCAGGUGAGCACUAAA [#SwitchBubble 13 #K4Early] | 502 nM |

Same assay, conditions: Eterna round: R107; input ligand: theophylline 20 uM

| Sequence | apparent KD of K4 kissing-loop reporter |
| --- | --- |
| CGAGUGAUGUUCGUUUUAAAAUUUUUUUGACAGGAUAUGCGGAAACGCAGAAGGGUCACCUUUGAGUUAAAAGAAAUUAAAUUUU [Ex FMN 16] | 224 nM |
| UCUGGUAUAUCUGAUACCAGAGUAUAGUAUCAAUUGCAUAUGGAGUGAUGUUCCAUAUAACUCCCUUGGCAGCAGAUCUAUCUCU [Same State Theophylline B GF 25] | 386 nM |
| AGCUCAGAGUGACUCGAUAAGAGUCACAAACGAGGACCGGUACGGCCGCCACUCGAAAUAACGAGAGUGAUGUUCUUGCUGAGCA [FiskerMod 7 - Jieux - Same State Tryptophan A] | 631 nM |
| AAACAUCACUGGGAGUGAUGUUCUCAGUGACGAGGACCGGUACGGCCGCCACUCGCGAGAGAUAUAGAUAAGUAAUGACAUCAUU [Excl Tryptophan A V4] | 390 nM |
| UGUACCGAGUCAGGAUAUGGCGUCGAAAGACGAAUUCUAGUGAUGUUAGGGAUCUGCGAAAGCAGUUCAGAAGGGACUUGGUACU [FmnBS 26 U36+U67] | 470 nM |
| AUUUUGGUUUAGAGUGAUGUUCCUUGUAUUCGAGGACCGGUACGGCCGCCACUCGAAUAGAAAAGAAAAGAAAUGAGUGAUGUUU [BDazzled - #4 SS Tryptophan A] | 357 nM |
| GGAUAGGACAGAGGAUAUGGUAGUGAUGUUACCAAACUGGUUACUCUUGUCAGAAAACUGGCAUUUCCAGAAGGCUGUCCUAUCG [KL-XFMN-B11] | 84.9 nM |
| UGUAUGGACUGAAGGAGCGCUAGGAAAGUGAGUGAUGUUCAUAUAAAAGUAUAAAGGGUUUGGCAGGUAGGUCGCAGUCCAUACU [KL-SSArg B5] | 270 nM |
| GCAGUGAUGUUGCGGAUGUACAGUGGCGUGCGAGGACCGGUACGGCCGCCACUCGUACAGAGCGAGCUAAUACAUCGAUAGGUGA [whbob_SS_Tryp_A_m5] | 288 nM |
| GCUAUGGUAGGAAGGAGCGCGGACGAUAUUUAUCGAGUGAUGUUCGAUUAAUUAAUUUUAACGCAGGUAGGUCGCCUACUAUAGC [Arginine B K4 28] | 88.2 nM |
| ACGUAUAUCAGAGGAUAUCGUAUUAAUAUUUUAUCUAUAUAGUUUUGCAGUGAUGUUGCAAUUAUUCGAGAAGGCUGAUUUACGA [JR_SSFMNB_Sub024] | 89.2 nM |
| CUUCAGAUCUGAAGGAGCGCGUUACCAGAAUGCAUCAUAGAGCAGUGAUGUUGCUCUGGAUCGCAGGUAGGUCGCAGAUCUGACG [Arg B Ex t7b] | 156 nM |
| GCCCGAAAGGGCCGAAGUGUUUGCGGCGAUCGAGGACCGGUACGGCCGCCACUCGUCGAGGCGUUCAGUGAUGUUGAAAGCAUGA | 266 nM |
| CUCGAGUGAUGUUCCUUUAUUUAUACAGAUACCAGUGAAUUUUAACACCCUUGGCAGCUGGUUGUAUCUUUGUUUUUUACACAUG [JR_Nu_ExcTheophyA_Sub025] | 270 nM |
| UGUCAUUGGUCGGCCGCCACUUCAUGUAGAGUGAUGUUCUGUAGGACGGAUCGAAAGAUCUGUCGAAGGACCGGGACCGAUGACU [FiskerMod 14 - Jieux - Same State - Tryptophan B] | 727 nM |
| UGCCGCAAGGCGAGCGCUCCCACUCCGGAAGGAGCGCCCGUAAGGGCAGGUAGGUCGCCGGAGUGAUGUUCCGGUGGAGGGCUCG [#2 Exclusion - Arginine A Attempt #24 (Inspired by Omei)] | 398 nM |
| UGUGUUUACCUGACUCAGUGAUGUUGAGAAGGAGCGUGCGAAAGCACAGGUAGGUCGCUCAAUCCUUAAUCAGGUGAGCACUAAA [#SwitchBubble 13 #K4Early] | 447 nM |

Same assay, conditions: Eterna round: R107; input ligand: tryptophan 2.4 mM

| Sequence | apparent KD of K4 kissing-loop reporter |
| --- | --- |
| CGAGUGAUGUUCGUUUUAAAAUUUUUUUGACAGGAUAUGCGGAAACGCAGAAGGGUCACCUUUGAGUUAAAAGAAAUUAAAUUUU [Ex FMN 16] | 166 nM |
| UCUGGUAUAUCUGAUACCAGAGUAUAGUAUCAAUUGCAUAUGGAGUGAUGUUCCAUAUAACUCCCUUGGCAGCAGAUCUAUCUCU [Same State Theophylline B GF 25] | 288 nM |
| AGCUCAGAGUGACUCGAUAAGAGUCACAAACGAGGACCGGUACGGCCGCCACUCGAAAUAACGAGAGUGAUGUUCUUGCUGAGCA [FiskerMod 7 - Jieux - Same State Tryptophan A] | 386 nM |
| AAACAUCACUGGGAGUGAUGUUCUCAGUGACGAGGACCGGUACGGCCGCCACUCGCGAGAGAUAUAGAUAAGUAAUGACAUCAUU [Excl Tryptophan A V4] | 433 nM |
| UGUACCGAGUCAGGAUAUGGCGUCGAAAGACGAAUUCUAGUGAUGUUAGGGAUCUGCGAAAGCAGUUCAGAAGGGACUUGGUACU [FmnBS 26 U36+U67] | 360 nM |
| AUUUUGGUUUAGAGUGAUGUUCCUUGUAUUCGAGGACCGGUACGGCCGCCACUCGAAUAGAAAAGAAAAGAAAUGAGUGAUGUUU [BDazzled - #4 SS Tryptophan A] | 356 nM |
| GGAUAGGACAGAGGAUAUGGUAGUGAUGUUACCAAACUGGUUACUCUUGUCAGAAAACUGGCAUUUCCAGAAGGCUGUCCUAUCG [KL-XFMN-B11] | 104 nM |
| UGUAUGGACUGAAGGAGCGCUAGGAAAGUGAGUGAUGUUCAUAUAAAAGUAUAAAGGGUUUGGCAGGUAGGUCGCAGUCCAUACU [KL-SSArg B5] | 135 nM |
| GCAGUGAUGUUGCGGAUGUACAGUGGCGUGCGAGGACCGGUACGGCCGCCACUCGUACAGAGCGAGCUAAUACAUCGAUAGGUGA [whbob_SS_Tryp_A_m5] | 241 nM |
| GCUAUGGUAGGAAGGAGCGCGGACGAUAUUUAUCGAGUGAUGUUCGAUUAAUUAAUUUUAACGCAGGUAGGUCGCCUACUAUAGC [Arginine B K4 28] | 106 nM |
| ACGUAUAUCAGAGGAUAUCGUAUUAAUAUUUUAUCUAUAUAGUUUUGCAGUGAUGUUGCAAUUAUUCGAGAAGGCUGAUUUACGA [JR_SSFMNB_Sub024] | 69.2 nM |
| CUUCAGAUCUGAAGGAGCGCGUUACCAGAAUGCAUCAUAGAGCAGUGAUGUUGCUCUGGAUCGCAGGUAGGUCGCAGAUCUGACG [Arg B Ex t7b] | 195 nM |
| GCCCGAAAGGGCCGAAGUGUUUGCGGCGAUCGAGGACCGGUACGGCCGCCACUCGUCGAGGCGUUCAGUGAUGUUGAAAGCAUGA | 480 nM |
| CUCGAGUGAUGUUCCUUUAUUUAUACAGAUACCAGUGAAUUUUAACACCCUUGGCAGCUGGUUGUAUCUUUGUUUUUUACACAUG [JR_Nu_ExcTheophyA_Sub025] | 155 nM |
| UGUCAUUGGUCGGCCGCCACUUCAUGUAGAGUGAUGUUCUGUAGGACGGAUCGAAAGAUCUGUCGAAGGACCGGGACCGAUGACU [FiskerMod 14 - Jieux - Same State - Tryptophan B] | 272 nM |
| UGCCGCAAGGCGAGCGCUCCCACUCCGGAAGGAGCGCCCGUAAGGGCAGGUAGGUCGCCGGAGUGAUGUUCCGGUGGAGGGCUCG [#2 Exclusion - Arginine A Attempt #24 (Inspired by Omei)] | 351 nM |
| UGUGUUUACCUGACUCAGUGAUGUUGAGAAGGAGCGUGCGAAAGCACAGGUAGGUCGCUCAAUCCUUAAUCAGGUGAGCACUAAA [#SwitchBubble 13 #K4Early] | 359 nM |
